Assay results published in patent publication US20200317768A1 (published 2020).
Where a chain is given by its changes, count along the chain named.

T1: cynomolgus monkey FcγRIIb extracellular domain with C-terminal His-tag (cynomolgus monkey)
T1 construct: also called cyno FcgRIIb; cynoFcγRIIb
T1 chain: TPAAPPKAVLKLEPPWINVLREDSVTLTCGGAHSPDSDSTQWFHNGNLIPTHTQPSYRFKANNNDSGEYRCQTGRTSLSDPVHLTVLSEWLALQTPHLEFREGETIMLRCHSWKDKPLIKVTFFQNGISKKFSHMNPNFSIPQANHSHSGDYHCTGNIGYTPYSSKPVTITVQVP

T2: human FcγRIIb extracellular domain with C-terminal His-tag (human, UniProt P31994 43-217)
T2 construct: also called human FcgRIIb
T2 sequence: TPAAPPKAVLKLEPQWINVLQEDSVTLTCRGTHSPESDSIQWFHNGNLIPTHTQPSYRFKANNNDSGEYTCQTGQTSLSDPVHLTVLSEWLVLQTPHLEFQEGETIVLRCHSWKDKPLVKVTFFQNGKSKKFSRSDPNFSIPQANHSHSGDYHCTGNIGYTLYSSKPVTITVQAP

T3: cynomolgus monkey FcγRIIa1 extracellular domain with C-terminal His-tag (cynomolgus monkey)
T3 construct: also called cyno FcgRIIa1; cynoFcγRIIa1
T3 chain: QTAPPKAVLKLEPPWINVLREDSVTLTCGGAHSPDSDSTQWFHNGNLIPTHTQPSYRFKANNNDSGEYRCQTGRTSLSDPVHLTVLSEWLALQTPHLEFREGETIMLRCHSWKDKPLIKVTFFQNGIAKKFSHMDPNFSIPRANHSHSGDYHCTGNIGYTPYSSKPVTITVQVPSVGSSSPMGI

T4: cynomolgus monkey FcγRIIIaS extracellular domain with C-terminal His-tag (cynomolgus monkey, UniProt Q8SPW2 21-206 at identity 1.00))
T4 construct: also called cyno FcgRIIIaS; cynoFcγRIIIaS
T4 chain: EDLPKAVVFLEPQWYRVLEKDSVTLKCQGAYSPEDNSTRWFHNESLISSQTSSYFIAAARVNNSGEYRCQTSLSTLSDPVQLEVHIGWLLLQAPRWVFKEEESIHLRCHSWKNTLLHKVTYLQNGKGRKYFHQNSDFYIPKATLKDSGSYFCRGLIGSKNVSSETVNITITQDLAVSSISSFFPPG

T5: cynomolgus monkey FcγRIIa3 extracellular domain with C-terminal His-tag (cynomolgus monkey)
T5 construct: also called cyno FcgRIIa3; cynoFcγRIIa3
T5 chain: T3 chain with P95T, T121A, A128S, H133P, D135N

T6: human FcγRIIaH extracellular domain with C-terminal His-tag (human, UniProt P12318 34-217)
T6 construct: also called human FcgRIIaH; FcγRIIa (type H)
T6 sequence: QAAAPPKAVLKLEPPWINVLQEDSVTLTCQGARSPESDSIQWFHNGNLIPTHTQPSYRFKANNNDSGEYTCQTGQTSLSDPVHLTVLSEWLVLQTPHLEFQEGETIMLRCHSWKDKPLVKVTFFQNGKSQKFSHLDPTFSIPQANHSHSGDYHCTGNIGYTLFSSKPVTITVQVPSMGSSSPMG

T7: human FcγRIIaR extracellular domain with C-terminal His-tag (human, UniProt P12318 34-217)
T7 construct: also called human FcgRIIaR; FcγRIIa (type R)
T7 chain: T6 sequence with H134R

B1: M103205H795-MY530/M103202L889-SK1 (antibody, human IgG1, kappa)
heavy: QVTLKESGPVLVKPTETLTLTCTVSGIDLSHDDISWVRQAPGKGLEWVGIISYAGSTYYASWAKGRLTISKDTSKNQVVLTMTNMDPVDTATYYCARGVPAYSHGGDLWGQGTLVTVSSASTKGPSVFPLAPSSKSTSGGTAALGCLVKDYFPEPVTVSWNSGALTSGVHTFPAVLQSSGLYSLSSVVTVPSSSLGTQTYICNVNHKPSNTKVDKKVEPKSCDKTHTCPPCPAPELLTGPSVFLFPPKPKDTLMISRTPEVTCVVVDVSDEDPEVKFNWYVDGVEVHNAKTKPREEQYNSTYRVVSVLTVLHQDWLNGKEYKCKVSNTALPKPIEKTISKAKGQPREPQVYTLPPSREEMTKNQVSLTCLVKGFYPSDIAVEWESNGQPENNYKTTPPVLDSDGSFFLYSKLTVDKSRWQQGNVFSCSVMHEALHNHYTQKSLSLSP
light: DIVMTQSPATLSLSPGERATLSCTSSQSVYHANWLSWFQQKPGQPPKLLIYWASTLAYGVPSRFSGSGSGTDFTLTISSLQPEDAATYYCAGGYGGGRYAFGQGTKVEIKRTVAAPSVFIFPPSDEQLKSGTASVVCLLNNFYPREAKVQWKVDNALQSGNSQESVTEQDSKDSTYSLSSTLTLSKADYEKHKVYACEVTHQGLSSPVTKSFNRGEC
notes: Substitutions introduced into M103205H795-SG1, expressed with M103202L889-SK1 as light chain; EU numbering
B2: M103205H795-MY532/M103202L889-SK1 (antibody, human IgG1, kappa)
heavy: B1 heavy with L236W, S241V, T328K
light: B1 light
notes: as for B1
B3: M103205H795-MY531/M103202L889-SK1 (antibody, human IgG1, kappa)
heavy: B1 heavy with L236W
light: B1 light
notes: as for B1

biological target: T8, human FcγRIIIaV extracellular domain with C-terminal His-tag (human, UniProt P08637 17-208); assay: SPR (BIACORE); KD of SG1 / KD of variant;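 also: relative to parent M103205H795-SG1 carrying the SG1 human heavy chain constant region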
T8 construct: also called human FcgRIIIaV
T8 sequence (P08637 17-208 F176V): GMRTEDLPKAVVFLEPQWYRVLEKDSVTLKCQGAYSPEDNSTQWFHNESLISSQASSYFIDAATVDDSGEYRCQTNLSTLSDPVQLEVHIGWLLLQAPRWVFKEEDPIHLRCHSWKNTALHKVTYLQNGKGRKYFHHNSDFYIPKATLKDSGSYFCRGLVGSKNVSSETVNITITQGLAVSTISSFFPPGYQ

First: B1
Second: B2
The “KD fold (SG1 = 1)” value of the first is lower: 0.23 fold for the first, 0.43 fold for the second.

In the case of B3, the “KD fold (SG1 = 1)” value is reported as 0.25 fold.

Biological target: T1, cynomolgus monkey FcγRIIb extracellular …
Assay: SPR (BIACORE); KD of SG1 / KD of variant;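 also: relative to parent M103205H795-SG1 carrying the SG1 human heavy chain constant region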

Going from B1 to B2, the “KD fold (SG1 = 1)” value rises from 5.6 fold to 7.8 fold.

With B3 the “KD fold (SG1 = 1)” value was 6.7 fold.

biological target: T2, human FcγRIIb extracellular domain with …; assay: SPR (BIACORE); KD of SG1 / KD of variant;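 also: relative to parent M103205H795-SG1 carrying the SG1 human heavy chain constant region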

Compared with B1, B2 is higher in “KD fold (SG1 = 1)” value: 2.5 fold for the first, 5.5 fold for the second.

In the case of B3, the “KD fold (SG1 = 1)” value is reported as 3.2 fold.

Biological target: T3, cynomolgus monkey FcγRIIa1 …
Assay: SPR (BIACORE); KD of SG1 / KD of variant;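 also: relative to parent M103205H795-SG1 carrying the SG1 human heavy chain constant region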

Going from B1 to B2, the “KD fold (SG1 = 1)” value rises from 2.3 fold to 4.2 fold.

For B3, the “KD fold (SG1 = 1)” value was 2.9 fold.

Biological target: T4, cynomolgus monkey FcγRIIIaS …
Assay: SPR (BIACORE); KD of SG1 / KD of variant

B1 and B2 are the same in “KD fold (SG1 = 1)” value: 0.42 fold for the first, 0.42 fold for the second.

With B3 the “KD fold (SG1 = 1)” value was 0.36 fold.

Biological target: T5, cynomolgus monkey FcγRIIa3 …
Assay: SPR (BIACORE); KD of SG1 / KD of variant

Going from B1 to B2, the “KD fold (SG1 = 1)” value rises from 6.8 fold to 23 fold.

B3 was tested, and the “KD fold (SG1 = 1)” value was 7.7 fold.

biological target: T6, human FcγRIIaH extracellular domain …; assay: SPR (BIACORE); KD of SG1 / KD of variant

Going from B1 to B2, the “KD fold (SG1 = 1)” value falls from 4.1 fold to 3.3 fold.

For B3, the “KD fold (SG1 = 1)” value was 2.4 fold.

Biological target: T7, human FcγRIIaR extracellular domain …
Assay: SPR (BIACORE); KD of SG1 / KD of variant

First: B1
Second: B2
The “KD fold (SG1 = 1)” value of the first is higher: 4.1 fold for the first, 3.8 fold for the second.

With B3 the “KD fold (SG1 = 1)” value was 2.7 fold.
